Assay results reported in PMC2990800 (Molecular and cellular endocrinology, 2010).

Target: the molecule itself
Test: FRET or BRET + split reporter

B1: Adenosine A2A receptor (receptor, UniProt P29274 1-412, looked up)
chain: MPIMGSSVYITVELAIAVLAILGNVLVCWAVWLNSNLQNVTNYFVVSLAAADIAVGVLAIPFAITISTGFCAACHGCLFIACFVLVLTQSSIFSLLAIAIDRYIAIRIPLRYNGLVTGTRAKGIIAICWVLSFAIGLTPMLGWNNCGQPKEGKNHSQGCGEGQVACLFEDVVPMNYMVYFNFFACVLVPLLLMLGVYLRIFLAARRQLKQMESQPLPGERARSTLQKEVHAAKSLAIIVGLFALCWLPLHIINCFTFFCPDCSHAPLWLMYLAIVLSHTNSVVNPFIYAYRIREFRQTFRKIIRSHVLRQQEPFKAAGTSARVLAAHGSDGEQVSLRLNGHPPGVWANGSAPHPERRPNGYALGLVSGGSAQESQGNTGLPDVELLSHELKGVCPEPPGLDDPLAQDGAGVS
  stoichiometry N: ≥ 3
